This series concerns the molecule itself. Nature of the series: crystal structure.

This is an account of results in article PMC4245977 (Biochemistry, 2014).

B1: AACC (C136A/C141A) double mutant of the Tn501 MerA (mercuric reductase) catalytic core (domain or fragment, Pseudomonas aeruginosa (Tn501))
chain: EPPVQVAVIGSGGAAMAAALKAVEQGAQVTLIERGTIGGTAVNVGAVPSKIMIRAAHIAHLRRESPFDGGIAATVPTIDRSKLLAQQQARVDELRHAKYEGILGGNPAITVVHGEARFKDDQSLTVRLNEGGERVVMFDRCLVATGASPAVPPIPGLKESPYWTSTEALASDTIPERLAVIGSSVVALELAQAFARLGSKVTVLARNTLFFREDPAIGEAVTAAFRAEGIEVLEHTQASQVAHMDGEFVLTTTHGELRADKLLVATGRTPNTRSLALDAAGVTVNAQGAIVIDQGMRTSNPNIYAAGDCTDQPQFVYVAAAAGTRAAINMTGGDAALDLTAMPAVVFTDPQVATVGYSEAEAHHDGIETDSRTLTLDNVPRALANFDTRGFIKLVIEEGSHRLIGVQAVAPEAGELIQTAALAIRNRMTVQELADQLFPYLTMVEGLKLAAQTFNKDVKQLSCCAG
Turning to B1, the binding result is reported as “binds”.
